According to US20130115635A1:

Tests used:
Peptide N-YEPEA-C [1] = experiment: ITC, 293.1 K
Peptide N-YEPEA-C [2] = experiment: ITC, 298.1 K
Peptide N-YEPEA-C [3] = experiment: ITC, 303.1 K
Peptide N-YEPEA-C [4] = experiment: ITC, 310.1 K

B1: NbSyn2 (VHH)
VHH: QGQLVESGGGSVQAGGSLRLSCAASGIDSSSYCMGWFRQRPGKEREGVARINGLGGVKTAYADSVKDRFTISRDNAENTVYLQMNSLKPEDTAIYYCAAKFSPGYCGGSWSNFGYWGQGTQVTVSS
- Kd (Peptide N-YEPEA-C [1]): 240 nM
- Stoichiometry (Peptide N-YEPEA-C [1]): 0.98
- Kd (Peptide N-YEPEA-C [2]): 190 nM
- Stoichiometry (Peptide N-YEPEA-C [2]): 0.99
- Kd (Peptide N-YEPEA-C [3]): 460 nM
- Stoichiometry (Peptide N-YEPEA-C [3]): 0.94
- Kd (Peptide N-YEPEA-C [4]): 850 nM
- Stoichiometry (Peptide N-YEPEA-C [4]): 0.92
